Test results: US20250295776A1, “CLEAVAGE RESISTANT CD16 CONSTRUCTS AND USES THEREOF” (Celularity Inc., priority 2022, published 2025)
One block for each substance: values may come before it.

Key:
Assay in all cases: cell-based or functional assay
[1] = biological target: CD16VS (construct #5: 176 V; SCRAMBLED original sequence), without Myc tag (human) (UniProt P08637)
[2] = biological target: high affinity (158 Val) and proteinase cleavage resistant (197Pro) CD16 variant (CD16VP) (human) (UniProt P08637)
[3] = biological target: endogenous CD16 on non-transduced (NT) placental NK cells (human) (UniProt P08637)
[4] = biological target: HER2 (human epidermal growth factor 2) on HER2 overexpressing tumor cell lines (human) (UniProt P04626)
[5] = biological target: Construct #10 (176 V (also referred to as 158 V); 197 Serine (S)), without Myc tag (human) (UniProt P08637)
[6] = biological target: Construct #1 (176 V; 197 Glycine (G)), without Myc tag (human) (UniProt P08637)

Sequence of Avelumab (anti-PD-L1 antibody) (HC): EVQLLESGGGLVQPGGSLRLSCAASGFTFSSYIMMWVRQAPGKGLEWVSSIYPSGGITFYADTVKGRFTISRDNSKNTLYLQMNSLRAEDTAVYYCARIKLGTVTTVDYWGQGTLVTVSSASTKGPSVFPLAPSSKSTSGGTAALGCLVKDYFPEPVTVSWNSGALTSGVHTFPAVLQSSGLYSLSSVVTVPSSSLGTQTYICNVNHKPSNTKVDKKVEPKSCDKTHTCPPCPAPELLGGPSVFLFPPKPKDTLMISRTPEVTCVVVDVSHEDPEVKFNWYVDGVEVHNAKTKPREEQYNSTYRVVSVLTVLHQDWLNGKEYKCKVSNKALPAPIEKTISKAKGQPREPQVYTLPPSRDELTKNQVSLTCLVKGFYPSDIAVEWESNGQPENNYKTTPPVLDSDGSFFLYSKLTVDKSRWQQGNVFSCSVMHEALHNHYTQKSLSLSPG
Sequence of Avelumab (anti-PD-L1 antibody) (LC): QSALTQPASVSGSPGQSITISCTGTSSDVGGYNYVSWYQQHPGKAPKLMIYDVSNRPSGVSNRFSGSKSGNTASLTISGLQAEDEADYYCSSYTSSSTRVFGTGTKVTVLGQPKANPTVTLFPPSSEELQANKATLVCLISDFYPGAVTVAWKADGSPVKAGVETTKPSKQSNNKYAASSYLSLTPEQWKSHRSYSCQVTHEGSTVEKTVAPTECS

cytolysis of 5637, T-24, RT-112 and NCI-H1975 tumor cell lines by PT-CD16VS cells with Avelumab, 24 hours, 5:1 E:T ratio [1]: 100% | cytolysis of MDA-MB-231 by PT-CD16VS cells with Avelumab, 12 hours, 5:1 E:T ratio [1]: 70%
Substance: Avelumab (anti-PD-L1 antibody)

Substance: Daratumumab (anti-CD38) (antibody)
cytotoxicity (ADCC) of PNK-CD16VP cells against Daratumumab opsonized Daudi cells, E:T 10:1 (n=5) [2]: 47% | cytotoxicity (ADCC) of PNK-CD16VP cells against Daratumumab opsonized HS-Sultan cells, E:T 10:1 (n=3) [2]: 30% | cytotoxicity (ADCC) of PNK-CD16VP cells against Daratumumab opsonized Sudh16 cells, E:T 10:1 (n=3) [2]: 30% | cytotoxicity (ADCC) of NT cells against Daratumumab opsonized Daudi cells, E:T 10:1 (n=5) [3]: 25% | cytotoxicity (ADCC) of NT cells against Daratumumab opsonized HS-Sultan cells, E:T 10:1 (n=3) [3]: 21% | cytotoxicity (ADCC) of NT cells against Daratumumab opsonized Sudh16 cells, E:T 10:1 (n=3) [3]: 16%

lysis of NCI-N87 cells by CYNK-101 cells (n=7 donors) in the presence of IgG control, 24 h, E:T 0.6:1, xCELLigence [4]: 7.5% | lysis of OE19 cells by CYNK-101 cells (n=7 donors) in the presence of IgG control, 24 h, E:T 0.6:1, xCELLigence [4]: 14.7%
Substance: Ultra-LEAF purified human IgG1 isotype control recombinant antibody

CD16 shedding after PMA/ionomycin activation, flow cytometry, PNK-CD16VP cells [2]: < 11% | CD16 shedding percentage post 2 h PMAi stimulation, transduced CYNK cells (n=6 donors) [2]: 4.3% | CD16 shedding percentage post 2 h PMAi stimulation, transduced CYNK cells (n=6 donors) [1]: 0.6% | CD16 shedding after 2 h PMAi, control sample [3]: 60% | CD16 shedding percentage post 2 h PMAi stimulation, NT CYNK cells [3]: 74.7% | CD16 shedding percentage post 2 h PMAi stimulation, transduced CYNK cells (n=6 donors) [5]: 1.8% | CD16 shedding percentage post 2 h PMAi stimulation, transduced CYNK cells (n=6 donors) [6]: 9.4%
Substance: metalloprotease ADAM17 (from UniProt P78536 215-824) (enzyme)
